One experiment addresses HLA-A*26:02. As to the kind of experiment: IEDB peptide-MHC binding, purified MHC/competitive/fluorescence; filed as Kd, often an IC50 or EC50 that approximates it; ≥ and ≤ were set here for values at or beyond the usual limits of such assays.
A further experiment concerns the target HLA-B*39:01. Described as above. As to conditions: source organism: Cryptosporidium parvum Iowa II.
For a further experiment, the target named is HLA-B*15:17. The description is as above. As to conditions: source organism: Cryptosporidium parvum Iowa II.
In a further experiment the target is HLA-A*68:02. Kind of experiment: IEDB peptide-MHC binding, purified MHC/direct/fluorescence; filed as Kd, often an IC50 or EC50 that approximates it; ≥ and ≤ were set here for values at or beyond the usual limits of such assays. The conditions noted are these: source organism: Cryptosporidium parvum.
Another experiment deals with HLA-B*15:01. The experiment is described as above.
A further experiment addresses HLA-A*26:01. The experiment is described as above.
Experiment [1] has as its target HLA-A*11:01. Described as above.
The next experiment addresses HLA-A*69:01. The description is as above.
The target in the next experiment is HLA-B*27:05. The experiment is described as above.
Experiment [2] has as its target HLA-B*08:03. The experiment is described as above. The conditions noted are these: source organism: Cryptosporidium parvum Iowa II.
Experiment [3] deals with HLA-B*08:02. Described as above. The conditions noted are these: source organism: Cryptosporidium parvum Iowa II.
The target of a further experiment is HLA-B*07:02. The experiment is described as above.
Another experiment concerns the target HLA-B*73:01. The description is as above. As to conditions: source organism: Cryptosporidium parvum.
Experiment [4] deals with HLA-A*03:01. Described as above.
Experiment [5] addresses HLA-A*31:01. Described as above.
The target in the next experiment is HLA-A*01:01. Described as above.
The target in experiment [6] is HLA-B*57:01. The description is as above. As to conditions: source organism: Cryptosporidium parvum.
The target in experiment [7] is HLA-A*02:01. The description is as above.
The target of another experiment is HLA-B*27:02. The experiment is described as above. As to conditions: source organism: Cryptosporidium parvum Iowa II.
The next experiment concerns the target HLA-B*48:01. Described as above. As to conditions: source organism: Cryptosporidium parvum.
Another experiment concerns the target HLA-B*18:01. Described as above. As to conditions: source organism: Cryptosporidium parvum.
The target in experiment [8] is HLA-A*26:03. Described as above. The conditions noted are these: source organism: Cryptosporidium parvum Iowa II.
The target of experiment [9] is HLA-B*58:01. Described as above.
A further experiment addresses HLA-B*15:09. The description is as above. The conditions noted are these: source organism: Cryptosporidium parvum Iowa II.
In experiment [10] the target is HLA-A*02:01. Kind of experiment: IEDB peptide-MHC binding, cellular MHC/competitive/fluorescence; filed as Kd, often an IC50 or EC50 that approximates it; ≥ and ≤ were set here for values at or beyond the usual limits of such assays. The conditions noted are these: source organism: Homo sapiens.
Another experiment addresses HLA-B*44:02. As to the kind of experiment: IEDB peptide-MHC binding, purified MHC/direct/fluorescence; filed as Kd, often an IC50 or EC50 that approximates it; ≥ and ≤ were set here for values at or beyond the usual limits of such assays. The conditions noted are these: source organism: Giardia lamblia ATCC 50803.
Another experiment has as its target HLA-B*08:01. Described as above. As to conditions: source organism: Giardia lamblia ATCC 50803.
In a further experiment the target is HLA-B*40:01. Described as above. The conditions noted are these: source organism: Giardia lamblia ATCC 50803.
Experiment [11] deals with HLA-A*30:01. The description is as above. The conditions noted are these: source organism: Giardia lamblia ATCC 50803.
The target of a further experiment is HLA-A*24:03. Described as above. The conditions noted are these: source organism: Giardia lamblia ATCC 50803.
In a further experiment the target is HLA-A*02:07. As to the kind of experiment: IEDB peptide-MHC binding, purified MHC/competitive/radioactivity; filed as Kd, often an IC50 or EC50 that approximates it; ≥ and ≤ were set here for values at or beyond the usual limits of such assays. The conditions noted are these: source organism: Homo sapiens.
Experiment [12] has as its target HLA-B*57:01. Described as above. As to conditions: source organism: Homo sapiens.
The target of experiment [13] is HLA-A*02:01. The description is as above. As to conditions: source organism: Homo sapiens.
Another experiment has as its target HLA-A*29:02. The description is as above. The conditions noted are these: source organism: Homo sapiens.
The target of experiment [14] is HLA-B*58:01. Described as above. As to conditions: source organism: Homo sapiens.
In a further experiment the target is HLA-B*15:02. As to the kind of experiment: IEDB peptide-MHC binding, purified MHC/direct/fluorescence; filed as Kd, often an IC50 or EC50 that approximates it; ≥ and ≤ were set here for values at or beyond the usual limits of such assays. The conditions noted are these: source organism: Cryptosporidium parvum Iowa II.
For a further experiment, the target named is HLA-B*46:01. Described as above. As to conditions: source organism: Neogale vison.
Experiment [15] has as its target HLA-A*11:01. Kind of experiment: IEDB peptide-MHC binding, purified MHC/competitive/fluorescence; filed as Kd, often an IC50 or EC50 that approximates it; ≥ and ≤ were set here for values at or beyond the usual limits of such assays. The conditions noted are these: source organism: Human immunodeficiency virus 1.
Experiment [16] deals with HLA-B*08:03. The experiment is described as above. As to conditions: source organism: Human immunodeficiency virus 1.
For experiment [17], the target named is HLA-B*08:02. Described as above. The conditions noted are these: source organism: Human immunodeficiency virus 1.
Experiment [18] deals with HLA-A*03:01. The experiment is described as above. As to conditions: source organism: Human immunodeficiency virus 1.
The target of experiment [19] is HLA-A*31:01. The description is as above. As to conditions: source organism: Human immunodeficiency virus 1.
Experiment [20] addresses HLA-A*26:03. The experiment is described as above. As to conditions: source organism: Human immunodeficiency virus 1.
The target in experiment [21] is HLA-A*30:01. The description is as above. As to conditions: source organism: Human immunodeficiency virus 1.
Where [22] appears, read: source organism: Cryptosporidium parvum Iowa II.
Setting [23] is: source organism: Cryptosporidium parvum.
Setting [24] is: source organism: Giardia lamblia ATCC 50803.

This passage reports Kd results from the Immune Epitope Database (IEDB).

One may read the Kd as the equilibrium constant for the complex coming apart.

Consider RKWGLDFCY, for which the equilibrium dissociation constant (Kd) is at least 20 µM with HLA-A*26:02 (setting [22]); at least 20 µM in the experiment with HLA-B*39:01; at least 20 µM with HLA-B*15:17; at least 20 µM with HLA-A*68:02; 2.08 µM with HLA-B*15:01 (setting [23]); at least 20 µM with HLA-A*26:01 (setting [22]). Besides, the dissociation constant (Kd) with HLA-A*11:01 [1] (setting [23]) was at least 20 µM; with HLA-A*69:01 (setting [23]) it was at least 20 µM; with HLA-B*27:05 (setting [23]) it was 0.0555 µM; with HLA-B*08:03 [2] it was at least 20 µM; in the experiment with HLA-B*08:02 [3], at least 20 µM; with HLA-B*07:02 (setting [23]), 9 µM. Moreover, the Kd in the experiment with HLA-B*73:01, in the experiment with HLA-A*03:01 [4] (setting [23]), with HLA-A*31:01 [5] (setting [23]), in the experiment with HLA-A*01:01 (setting [23]), with HLA-B*57:01 [6] and with HLA-A*02:01 [7] (setting [23]) was at least 20 µM each time. In addition, the Kd is 7 µM with HLA-B*27:02; at least 20 µM with HLA-B*48:01; at least 20 µM with HLA-B*18:01; at least 20 µM with HLA-A*26:03 [8]; at least 20 µM with HLA-B*58:01 [9] (setting [23]); at least 20 µM in the experiment with HLA-B*15:09.
Regarding KLVVVGAGGV, in the experiment with HLA-A*02:01 [10], the equilibrium dissociation constant (Kd) was at least 156 µM.
On to KTPWDRFCK, for which the dissociation constant (Kd) in the experiment with HLA-B*15:01 (setting [24]) was at least 20 µM; with HLA-A*26:01 (setting [24]), at least 20 µM; in the experiment with HLA-A*11:01 [1] (setting [24]), 0.0641 µM; in the experiment with HLA-A*69:01 (setting [24]) it was at least 20 µM; in the experiment with HLA-B*27:05 (setting [24]) it was at least 20 µM; in the experiment with HLA-B*44:02 it was at least 20 µM. Further, the dissociation constant Kd with HLA-B*08:01 is at least 20 µM; with HLA-B*07:02 (setting [24]), at least 20 µM; with HLA-A*03:01 [4] (setting [24]) it was 3.63 µM; with HLA-A*31:01 [5] (setting [24]), 0.0957 µM; with HLA-A*01:01 (setting [24]) it was at least 20 µM; in the experiment with HLA-A*02:01 [7] (setting [24]), at least 20 µM. Besides, the Kd with HLA-B*40:01 was at least 20 µM; with HLA-A*30:01 [11], 0.0218 µM; in the experiment with HLA-B*58:01 [9] (setting [24]), at least 20 µM; in the experiment with HLA-A*24:03, 6.93 µM.
Consider KMKEIAEAY, for which the Kd was at least 53.4 µM with HLA-A*02:07; 2.87 µM in the experiment with HLA-B*57:01 [12]; at least 78.1 µM in the experiment with HLA-A*02:01 [13]; 0.0889 µM in the experiment with HLA-A*29:02; 2.03 µM in the experiment with HLA-B*58:01 [14]; 0.184 µM with HLA-B*15:02. The sequence further came in with a dissociation constant (Kd) with HLA-B*46:01 of 0.446 µM.
Take IATLYCVHQK: the Kd in the experiment with HLA-A*11:01 [15] was 1.71 µM; in the experiment with HLA-B*08:03 [16] it was at least 20 µM; in the experiment with HLA-B*08:02 [17] it was at least 20 µM; in the experiment with HLA-A*26:02 (source organism: Human immunodeficiency virus 1), at least 20 µM; with HLA-A*03:01 [18] it was at least 20 µM; with HLA-A*31:01 [19], at least 20 µM. The Kd with HLA-A*26:03 [20] is at least 20 µM; with HLA-A*30:01 [21] it was at least 5 µM.
